# Target: F-actin (polymerized human platelet actin) (human) (UniProt P60709)
# Assay: co-sedimentation
row,Substance,percent of NMY-2 S1 fragment in the pellet with F-actin
1,"NMY-2(S1)-MLC4-MLC5 complex, NMY-2(R252A) S1 fragment (from UniProt G5EBY3 1-874; Q09510 1-172; Q9XVI9 1-142)",42%
2,"NMY-2(S1)-MLC4-MLC5 complex, NMY-2(S251A) S1 fragment (from UniProt G5EBY3 1-874; Q09510 1-172; Q9XVI9 1-142)",91%
3,"NMY-2(S1)-MLC4-MLC5 complex, wild-type NMY-2 S1 fragment (from UniProt G5EBY3 1-874; Q09510 1-172; Q9XVI9 1-142)",66%
